In article PMC11676285, “Enhancement of the Thermostability of Microbacterium Esterase by Combinatorial Rational Design” (Molecules, 2024) one finds Km, kcat and kcat/Km data, which are given here for four proteins.

Changes are numbered by the printed parent chain. Numbers in names are those of the source.

The chains are these.
B1: EstSIT01 (Microbacterium aurantiacum) (protein)
chain: MTLFDGITSRIVDTDRLTVNILERAADDPQTPPDRTVVFVHGNVSSALFWQEIMQDLPSDLRAIAVDLRGFGGSEHAPVDATRGVRDFSDDLHATLEALDIPVAHLVGWSMGGGVVMQYALDHPVLSLTLQSPVSPYGFGGTRRDGSRLTDDDAGCGGGGANPDFIQRLIDHDTSDDAQTSPRSVFRAGYVASDYTTDHEDVWVESMLTTSTADGNYPGDAVPSDNWPGFAAGRHGVLNTMAPQYFDVSGIVDLAEKPPILWIHGTADAIVSDASFYDLNYLGQLGIVPGWPGEDVAPAQEMVSQTRDVLGRYAAGGGTVTEVAVEGAGHSAHLERPAVFRHALLEIIGYVGAAADPAPPTEAIIIRSAD
B2: EstSIT01 (Microbacterium aurantiacum; E301P/G215A) (protein)
chain: B1 chain with G215A, E301P
B3: EstSIT01 (Microbacterium aurantiacum; E301P) (protein)
chain: B1 chain with E301P
B4: EstSIT01 (Microbacterium aurantiacum; E301P/G215A/G293A) (protein)
chain: B1 chain with G215A, G293A, E301P

Broadly, the Km is the substrate concentration at which the rate is half of its maximum. For orientation: kcat means the maximal rate divided by the concentration of active sites. As a reminder, the kcat/Km is the turnover number divided by the Michaelis constant.

Substrate in this data set: COC(=O)[C@@H]1[C@H](C(=O)OC)N(Cc2ccccc2)C(=O)N1Cc1ccccc1
The data set can be described thus: HPLC of biotin monomethyl ester, Michaelis-Menten fit. Format: biochemical, Microbacterium aurantiacum. Conditions: pH 8.0, 0.05 M PBS, 30 °C, substrate 0.1 to 10 mM. From the text:
HPLC of biotin monomethyl ester, Michaelis-Menten fit on […]01
For B1, the Km came to 150 ± 20 µM, the kcat stood at 7.8 ± 0.31 s⁻¹ and the specificity constant (kcat/Km) is 51900 M⁻¹ s⁻¹.

Consider B2, for which the Michaelis-Menten constant (Km) was 210 ± 40 µM, the turnover number (kcat) worked out at 5.4 ± 0.37 s⁻¹ and the kcat/Km amounted to 25600 M⁻¹ s⁻¹.

Take B3: the Km came to 220 ± 30 µM, the kcat is 5.1 ± 0.28 s⁻¹ and the catalytic efficiency (kcat/Km) came to 23200 M⁻¹ s⁻¹.

For the protein B4, the Km came to 180 ± 30 µM, the kcat was 6.3 ± 0.39 s⁻¹ and the kcat/Km was determined as 34900 M⁻¹ s⁻¹.
